The text below walks through data of patent publication US20240343803A1 (SHANDONG SIMCERE BIOPHARMACEUTICAL, published 2024).

One may read the IC50 as the concentration needed to halve the response being measured. High values mean a need for much substance, low ones inhibition by little substance. For orientation: Kd means the constant that tells how readily two partners part at equilibrium. A high value points to weaker binding. Usually koff stands for the rate constant with which the complex falls apart. Read a low koff as a long-lived complex. For orientation: kon means the second-order rate constant of association. A lower kon goes with slower complex formation.

Experiment [1] addresses T1, human PVRIG-his (AcroBiosystems, Cat NO. PVG-H52H4) (human, UniProt Q6DKI7 41-171, limits assumed).
T1 construct: also called human PVRIG protein
T1 sequence (looked up): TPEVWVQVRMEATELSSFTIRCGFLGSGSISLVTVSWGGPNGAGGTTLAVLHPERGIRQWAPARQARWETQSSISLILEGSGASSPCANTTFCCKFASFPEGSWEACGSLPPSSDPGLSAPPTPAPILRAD
Put plainly: competition ELISA, PVRIG-His coated, competitor human PVRL2-mFc. As to the method: The ELISA plate was pre-coated with 100 μL/well of 0.5 μg/mL human PVRIG-his protein (AcroBiosystems, Cat NO. PVG-H52H4). The tested anti-PVRIG antibodies were diluted from the highest concentration of 16 nM (two-fold concentration). The diluted antibodies were mixed with 18 ng/ml human PVRL2-mFc (AcroBiosystems, Cat NO. CD2-H5257) in equal volume, added into the plate (100 μL/well), and incubated with shaking at room temperature for 2.0 hours. […] A HRP substrate, TMB (Thermo, Cat NO. 34029) was added into wells after washing the plate again for color development. After adding a termination solution to terminate the reaction, the absorbance value was read by a microplate reader (MD i3×). An inhibiting curve was drawn with concentration of antibodies as the abscissa and the corresponding OD value as the ordinate. The IC50 value was calculated by using a Four Parameter Logistic Fit (GraphPadPrism9). The smaller the IC50 value, the stronger the ability of the antibodies inhibits the binding between PVRIG and PVRL2. The positive and negative controls are the same as in Example 8.
(In general: An ELISA detects its analyte on a solid surface through an enzyme-linked reagent.)

The target in experiment [2] is T1, human PVRIG-his (AcroBiosystems, Cat …). Put plainly: SPR (BIAcore), antibody captured on Protein A chip, human PVRIG-His analyte. Here is the method: Biacore was used to detect the specific binding between anti-PVRIG antibody and human PVRIG protein. Protein A chip was used in the BIAcore assay. The time required for the chip to capture the diluted antibody and saturate the binding antigen to reach Rₘₐₓ (Maximum binding capacity, 50 RU) was measured by manual run. […] The affinity of antibody for antigen was measured by multi-cycle kinetics. In each cycle, the antibodies were injected prior to the injection of gradient concentraions of PVRIG proteins allowing the occurrence of antibody-antigen association and dissociation After each cycle, the Protein A chip was regenerated by Glycine, pH 1.5 (to remove the proteins on the chip). The affinity of antibody for antigen was calculated by BIAcore T200 analysis software.
In general terms: SPR reads the build-up and loss of mass on a sensor chip optically.

In experiment [3] the target is T2, human PVRIG-mFc protein (Acro, PVG-H5253) (human, UniProt Q6DKI7 41-171, limits assumed).
T2 construct: bought protein
T2 sequence (looked up): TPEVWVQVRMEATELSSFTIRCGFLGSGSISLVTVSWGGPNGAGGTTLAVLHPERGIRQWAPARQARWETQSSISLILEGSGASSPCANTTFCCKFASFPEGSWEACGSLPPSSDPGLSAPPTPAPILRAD
Put plainly: FACS competition, PVRIG-mFc binding to CHO-K1-CD112 cells, competitor CD112 on cells. Here is the method:
A working solution of human PVRIG-mFc protein (Acro, PVG-H5253) prepared with staining buffer, 1 μg/mL (four-fold concentration), was added into a 96-well plate (50 μL PVRIG-mFc working solution per well). […] The diluted antibodies were added to the well containing 50 μL of PVRIG-mFc. The plate was placed on a microplate shaker at 400 rpm for 1 minute to fully mix the antibodies and PVRIG-mFc proteins, and then incubated at 4° C. for 30 minutes. After the incubation, the cell suspension prepared above (100 μL) was added into the wells, gently mixed with the pipette tip and incubated at 4° C. for 30 minutes. After the incubation, the cells were washed twice with staining buffer (200 μL per well) and centrifuged at 350×g for 5 minutes to discard the supernatant. The PE goat anti-mouse IgG Fc antibody (Biolegend, 405337) was diluted 250 times with staining buffer, added into the washed wells (100 μL per well), mixed well, and stained at 4° C. for 30 minutes. After staining, the cells were washed twice with staining buffer, finally resuspended with 200 μL staining buffer and analyzed by flow cytometry (BD, Canto II). The weaker the fluorescence signal, the stronger the ability of the antibodies blocks the binding of CHO-K1 human CD112 cells to the PVRIG-mFc protein. An antibody binding curve was drawn with concentration of antibodies as the abscissa and the corresponding Mean Fluorescence Intensity (MFI) as the ordinate. The IC50 value of the antibodies and the AUC value of the binding curve were calculated by using a Four Parameter Logistic Fit (GraphPadPrism9). The smaller the IC50 value and AUC value, the stronger the ability of the antibodies competes with CHO-K1-CD112 cells to bind to human PVRIG-mFc protein. […] […] The smaller the percentage value, the stronger the blocking ability of the antibodies.

B1: PVRIG-A113 (Fc fusion)
chain: QLQLVESGGGLVQSGGSLRLSCAASGRTRSMYVMGWFRQAPGKEREFVGRIKWSGDTTYTSYADFVKGRFTLYGNQARNTVYLQMNSLKPEDTAVYYCAALPSDYDYRAASYGVDYWGKGTLVTVSS
notes: heavy chain antibody VHH-hinge-CH2-CH3, human IgG1 constant part; not shown: human IgG1 hinge-CH2-CH3
Consider B1, for which the IC50 in experiment [1] was 0.092 nM. In addition, in experiment [2], the dissociation constant Kd came to 0.203 nM, the koff was 8.96e-05 s⁻¹ and the kon was found to be 442000 M⁻¹ s⁻¹. In experiment [3], the “% AUC to COM701-hIgG4” value was found to be 172%, the “% AUC to SRF813-hIgG1” value is 106%, the “% IC50 to COM701-hIgG4” value amounted to 124% and the “% IC50 to SRF813-hIgG1” value was 97.9%.

B2: PVRIG-A30 (Fc fusion)
chain: QVQLVESGGGLVQPGGSLRLSCAASGRTDSMNVMGWFRRAPGKEREFVARIKWNGDTTYTAYADFLKGRFTLYGAVARNRVYLQMNSLQPEDTAVYYCAAGEVSGSSYSPDYGMHYWGKGTLVTVSS
notes: as for B1
B2 had a half-maximal inhibitory concentration (IC50) in experiment [1] of 0.255 nM. Moreover, in experiment [2], the Kd turned out to be 0.404 nM, the koff was 6.36e-05 s⁻¹ and the kon came to 157000 M⁻¹ s⁻¹. In experiment [3], the “% AUC to COM701-hIgG4” value was 58.9%, the “% AUC to SRF813-hIgG1” value came out at 58.9%, the “% IC50 to COM701-hIgG4” value turned out to be 48.1% and the “% IC50 to SRF813-hIgG1” value is 64.4%.

B3: PVRIG-A75 (Fc fusion)
chain: QLQLVESGGGLVQSGGSLRLSCAASGRTRSMYVMGWFRQAPGKEREFVGRIKWSGDTTYTSYADFVKGRFTLYGNQARNTVYLQMNSLKPEDTAVYSCAASKFPVSGVPEHYDYWGQGTQVTVSS
notes: as for B1
Regarding B3, the IC50 in experiment [1] is 0.0621 nM. For the same molecule, in experiment [2], the Kd was determined as 0.531 nM, the koff worked out at 5.67e-05 s⁻¹ and the kon came out at 107000 M⁻¹ s⁻¹. Besides, in experiment [3], the “% AUC to COM701-hIgG4” value is 101%, the “% AUC to SRF813-hIgG1” value worked out at 86.6%, the “% IC50 to COM701-hIgG4” value amounted to 89.6% and the “% IC50 to SRF813-hIgG1” value was 93.7%.

B4: PVRIG-A117 (Fc fusion)
chain: EVQVVESGGGLVQAGGSLRLSCTASEHIYDLYIMGWYRQAPGKDRELVATITYTGSIYIADSVKDRFTISRGNAKNTVSLQMSGLKPEDTAVYYCNADPSGLGRKLYWGQGTQVTVSS
notes: as for B1
The molecule B4 came in with an IC50 in experiment [1] of 0.0528 nM. For the same molecule, in experiment [2], the Kd was 0.367 nM, the koff came to 0.00137 s⁻¹ and the kon was determined as 3.74e+06 M⁻¹ s⁻¹. In addition, in experiment [3], the “% AUC to COM701-hIgG4” value was 130%, the “% AUC to SRF813-hIgG1” value was found to be 72.7%, the “% IC50 to COM701-hIgG4” value came out at 134% and the “% IC50 to SRF813-hIgG1” value came out at 118%.

B5: PVRIG-A35 (Fc fusion)
chain: EVQVVESGGGLVQSGGSLRLSCAASGRTRSMYVMGWFRQAPGKEREFVGRIKWSGDTTYTSYADFVKGRFTLYGNQARNTVYLQMNSLKPEDTAVYYCNGRSRFNVINAWGTGTLVTVAS
notes: as for B1
With B5, in experiment [1], the IC50 stood at 0.0543 nM. In experiment [2], this molecule came in with a Kd of 0.846 nM, a koff of 7.53e-06 s⁻¹ and an association rate constant (kon) of 8900 M⁻¹ s⁻¹. Also, in experiment [3], the “% AUC to COM701-hIgG4” value stood at 145%, the “% AUC to SRF813-hIgG1” value came out at 126%, the “% IC50 to COM701-hIgG4” value amounted to 138% and the “% IC50 to SRF813-hIgG1” value is 136%.

B6: PVRIG-A15 (Fc fusion)
chain: QVQLVESGGGLVQAGGSLRLSCVASGRTFSANTMAWFRQAPGKEREFVAYTRWTDDNTDYASYADFVKGRFTAFRDNTRNTMYLQMNRLRPEDTAVYYCAAATTRGTYYSAGDYNSWGQGTQVTVSS
notes: as for B1
In the case of B6, in experiment [1], the IC50 worked out at 0.208 nM. For the same molecule, in experiment [2], binding was put at a Kd of 0.377 nM, the koff is 2.31e-05 s⁻¹ and the kon turned out to be 61200 M⁻¹ s⁻¹. In addition, in experiment [3], the “% AUC to COM701-hIgG4” value turned out to be 77.2%, the “% AUC to SRF813-hIgG1” value came out at 77.3%, the “% IC50 to COM701-hIgG4” value was found to be 54.1% and the “% IC50 to SRF813-hIgG1” value came out at 72.4%.

B7: PVRIG-A104 (Fc fusion)
chain: EVQVVESGGGLVQAGGSLRLSCAASGRTRSMYVMGWFRQAPGKEREFVGRIKWSGDTTYTSYADFVKGRFTLYGNQARNTVYLQMNSLKPEDTAVYYCYRRSWTNTKLYWGKGIQVTVSS
notes: as for B1
B7 gave an IC50 in experiment [1] of 0.0659 nM. Moreover, in experiment [2], binding was characterised by a dissociation constant (Kd) of 0.0276 nM, the koff was determined as 4.24e-06 s⁻¹ and the kon was 154000 M⁻¹ s⁻¹. For the same molecule, in experiment [3], the “% AUC to COM701-hIgG4” value is 152%, the “% AUC to SRF813-hIgG1” value was 111%, the “% IC50 to COM701-hIgG4” value is 118% and the “% IC50 to SRF813-hIgG1” value stood at 116%.

B8: PVRIG-A60 (Fc fusion)
chain: QVQLVESGGGLVQSGGSLRLSCAASGRTRSMYVMGWFRQAPGKEREFVGRIKWSGDTTYTSYADFVKGRFTLYGNQARNTVYLQMNSLKPEDAAVYYCNLRRLDGVNYWGKGTLVTVSS
notes: as for B1
In turn, B8 had an IC50 in experiment [1] of 0.0557 nM. In experiment [2], this molecule came in with a Kd of 0.283 nM, an off-rate (koff) of 3.97e-05 s⁻¹ and a kon of 141000 M⁻¹ s⁻¹. Moreover, in experiment [3], the “% AUC to COM701-hIgG4” value worked out at 117%, the “% AUC to SRF813-hIgG1” value came out at 103%, the “% IC50 to COM701-hIgG4” value was 98.9% and the “% IC50 to SRF813-hIgG1” value came out at 96.4%.

B9: PVRIG-A43 (Fc fusion)
chain: QVQLVESGGGLVQSGGSLRLSCAASGRTRSMYVMGWFRQAPGKEREFVGRIKWSGDTTYTSYADFVKGRFTLYGNQARNTVYLQMNSLKVEDTAVYYCAGRVVPLPSRQRDRYDYWGQGTQVTVSS
notes: as for B1
On to B9, for which the 50% inhibitory concentration (IC50) in experiment [1] was 0.0537 nM. In experiment [2], this molecule yielded a Kd of 0.366 nM, a koff of 8.58e-06 s⁻¹ and a kon of 23400 M⁻¹ s⁻¹. Moreover, in experiment [3], the “% AUC to COM701-hIgG4” value was found to be 128%, the “% AUC to SRF813-hIgG1” value turned out to be 111%, the “% IC50 to COM701-hIgG4” value is 121% and the “% IC50 to SRF813-hIgG1” value was found to be 119%.
